Assay: yeast display, Sf9 membrane polyspecificity reagent, FACS + sequencing; frameworks hold sequencing errors
How it was run: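 A synthetic nanobody library was expressed on Saccharomyces cerevisiae BJ5465 by galactose induction for 36–48 hours. The library was stained for 1 hour at 4 °C with 10% biotinylated, detergent-solubilized Sf9 membrane reagent and enriched with streptavidin microbeads before FACS. Low and high (top ~1%) gates were set on anti-HA fluorescence for expression and streptavidin fluorescence for reagent binding, and each polyreactivity label reflects the gate of origin.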

| Sequence | polyreactivity (PSR sort gate) |
| --- | --- |
| QVQLVESGGGLVQAGGSLRLICAASGFTFPWNVMGWYRQAPGKERELVAAITYDGGGTYADSVKGRFTISRDNAKNTVYLQMNSLKPEDTAVYYCNADLIYGEEYDYWGQGTQVTVSS | low polyreactivity |
| QVQLQESGGGLVKAGGSLRLSCAASGNISPSDAMGWYRQAPGEERDLVASNAYSAITYYADGVKGRYTISRDNAKNTVYLQMNSLKPEDTEVYYCAVYQFTYPVFPAYWGQGTQVTVSS | low polyreactivity |
| QVQLVESGGGLVQAGGSLRLSCAASGSIFEYNVMGWYRQAPGKERELVAAINSGGSTYYADSVKGRFTISRDNAKNTVYLQMNSLKPEDTAVYYCAARQRPNRYGYYYWGQGTQVTVSS | high polyreactivity |
| QVQLVESGGGLVQAGGSLRLSCAASGSTFYSYAMGWYRQAPGKERELVAAITTSGVSTYYADSVKGRFTISRDNAKNTVYLQMNSLKPEDTAVYYCNAYFIYEGGWYYKAQYDYWGQGTQVTVSS | low polyreactivity |
| QVQHVESGGGLVQAGGILRLICDASGGIFAANAMGWYRPAPGQERELVAAITSVGSTYADSVKGRFTISRDNAKNTVYLQMNSLKPEDTAVYYCAADTESVIVWYEDDYWGQGTQVTVSS | low polyreactivity |
| QVQLVESGGGLVQAGGSLRLSCAASGRIFYVYTMGWYRQARGKERELVAAISWSGGSTHYADSVKGRFTISRDNAKNTVYLQMNSLKTEYTAVYYCNKGVVSRVAFEYWGQGTQVTVSS | low polyreactivity |
| QVQLVESGGGLVQAGGSLRLSCASSGSIFSKYAMGWYRQAPGKERELVAAITLNGGSTYYADSVKGRFTISRDNAKNTVYLQMNSLKPEDTAVYYCAKSDRPWWGYYYSWGQGSQVTVSS | low polyreactivity |
| QVQLVESGGGLVQAGGSLRLSCAASGSTFPYYGLGWYRQAPGKERELVAVISRRGTGTYYADSVKGRFTISRDNAKNTVYLQMNSLKPEDTAVYYCATAGYFIYWGQGTQVTVSS | low polyreactivity |
| QVQRVESGGGLVQAGGSLRLSCAASGFTLLPNAMGWYRQAPGKETELVAAITASGGRTYYADSVKGRFTISRDNAKNTVYLQMNSLKPEDTAVYSCNADWQDDLAGYDVDYWGQGTQVTGSS | low polyreactivity |
| QVQLVESGGGLVQAGGSLRLSCAASGRTFKSYSMGWYRQAPGKERELVAAISWSGGSTYYADSVKGRFTISRDNAKNTVYLQMNSLKPEDTAVYYCAKRGYASGSKWDYGYWGQGTQVTVSS | high polyreactivity |
| QVQLVESGGGLVQAGGSLRLSCAASGITLAYNAMGLYRQAPGTEREFVAAIDVCGGRTYYADSVKGRFTISRDNAKNTVYLQMNSLKPEDTAVYYCAAADIIDHSFPYDYWGQGTQVTVSS | low polyreactivity |
| QVQLVESGGGLVQAGGSLRLSCAASGRIFSGYTMGWYRQAPGKERELVAAITRSGGSTYYADSVKGRFTISRDNAKNTVYLQMNSLKPEDTAVYYCNKVSYRRMDSWGQGTQVTVSS | high polyreactivity |
| QVQLVESGGGLVQAGGSLRLSCAASGFIFGYNAMGGYRLAPGKERELVAAISSYGGSPYYADSVKGRFTISRDNAKNTVYLQMNTLKPEDTAVYYWAARPVALRKYDYWGQGTQLTVSS | low polyreactivity |
| QVQLVESGGGLVQAGGSLRLSCAASGSIFGRYVMGWYRQAPGKERELVAAINRSGGRTYYADSVKGRFTISRDTAKNTVYLQMNSLKPEDTAVYYCATYTRSSASKEVPYDYWGQGTEVTVSS | high polyreactivity |
| QVQLVESGGGLVQAGGSLRLSCAASGSTIPRYAMGWYRQAPGKERELVAAISGRGGSTYYADSVKGRFTISRDNAKNSFYFQLISLKPEDTAVYYCNAYRRYYTMYYWGQGTQVTVSS | high polyreactivity |
| QVQLVESGGGLVQAGGSLRLSCAASGRTLPPNDMGWYRQAPGKERELVAAITRSGGRTYYADSVKGRFTISRDNAKNTVYLQMNSLKPEDTAVYYCATYNPPYSDYSRYNYWGQGTQVTVSS | high polyreactivity |
| QVQLVESGGGLVQAGGSLRLSCAASGRTFYWNAMGWYRQAPGKDRDLVASISWSGGRTYYADSVKGRFTISRDNAKNTVYLQMNSLKPEDTAVYYCARRYSGTPSTFYYWGQGTQVNVSS | high polyreactivity |

From the nanobody polyreactivity screen of Harvey et al. (2022)
